Data: patent US20210000895A1 (RHODE ISLAND HOSPITAL, published 2021)

Molecular target: CD4 receptor on primary human CD4+ T lymphocytes (human, UniProt P01730 26-458)
Assay: cell-based or functional assay

B1: IL-16/Lamp2b fusion protein (Interleukin (IL)-16 C-terminal 20 amino acid domain fused to the N-terminus of lysosome-associated membrane protein 2 variant b), … (other)
chain: GNSTMGSGTIVIRRKSLQSKETTAAGDSGSGSGSGGSSLELNLTDSENATCLYAKWQMNFTVRYETTNKTYKTVTISDHGTVTYNGSICGDDQNGPKIAVQFGPGFSWIANFTKAASTYSIDSVSFSYNTGDNTTFPDAEDKGILTVDELLAIRIPLNDLFRCNSLSTLEKNDVVQHYWDVLVQAFVQNGTVSTNEFLCDKDKTSTVAPTIHTTVPSPTTTPTPKEKPEAGTYSVNNGNDTCLLATMGLQLNITQDKVASVININPNTTHSTGSCRSHTALLRLNSSTIKYLDFVFAVKNENRFYLKEVNISMYLVNGSVFSIANNNLSYWDAPLGSSYMCNKEQTVSVSGAFQINTFDLRVQPFNVTQGKYSTAQECSLDDDTILIPIIVGAGLSGLIIVIVIAYVIGRRKSYAGYQTLGSGYPYDVPDYA
Q: With B1 as the binder, how does the “Tat protein delivery to rCD4+T lymphocytes (Western blot of intracellular Tat), EXO^CD4-Tat exosomes compared to EXO-Tat exosomes” value read?
A: 20 fold
